Assay results from the supplement of paper PMC10567573.

B1: UBE2R2 (parent)
chain: DPQSGELPSERWNPTQNVRTILLS
B2: SPOPL (parent)
chain: YTGRAPNLDKMADNLLAAADKYAL

Variants of: B1
Experiment: protein stability index of a GFP-peptide fusion (GPS, HEK-293T) (PSI 1-6); higher = more stable
Conditions: c terminus: a fixed tail appended
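Also: lentivirally expressed fusions sorted by FACS into six bins by GFP to DsRed ratio, PSI derived from sequencing read proportions per bin multiplied by bin number.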

Protein stability index: each site, then its substitutions
S9: D 3.86 | Q 3.35 | A 4.37 | E 3.95 | T 3.98
R11: D 3.88 | P 3.71 | N 3.48
G5: E 4.5 | L 3.53 | Y 3.17 | W 2.6 | M 3.41 | A 3.21
E10: G 2.84 | Y 2.71 | F 2.45 | S 2.95 | Q 3.5 | C 2.81
P8: A 4.13
N17: F 2.75 | M 2.39 | T 3.51 | Q 3.6
E6: S 3.1 | N 3.48 | I 3.24 | A 3.13 | K 2.79 | Y 2.95
L7: A 4.25 | M 3.71 | V 3.19 | I 3.35 | W 2.62 | E 4.02 | Q 4.32 | N 4.11
P2: L 2.99
T15: N 3.89 | L 2.86 | D 4.15
P14: R 4.28 | T 4.13 | K 3.56 | N 3.17
Q16: H 3.44 | V 3.11 | M 3.46 | R 3.81 | F 2.5 | P 3.24
S4: P 3.02 | N 2.99 | Q 3.68
V18: C 3.9
L22: F 3.54 | H 4.2 | Q 4.25 | S 3.88 | W 2.44 | Y 2.89
D1: E 3.31 | Q 3.88
L23: I 3.17 | G 3.77 | M 3.7 | C 4.63 | V 3.34 | F 3.44 | P 4.34 | S 4.08
R19: H 3.43 | W 1.85 | T 3.21
I21: K 4.61 | P 4.3 | E 4.53 | T 4.26 | A 5.11 | Y 3.14 | V 3.9
Q3: G 3.79 | N 3.45 | C 3.81 | P 3.01 | K 3.06 | H 3.22 | E 3.82
W12: H 4.08 | G 4.33 | L 3.62 | K 4.54 | S 4.67 | D 4.81 | T 4.72
T20: P 3.79 | R 3.32 | D 3.61 | E 3.19 | Q 3.76 | N 3.71 | V 2.05 | F 1.57
S24: K 4.34 | W 1.61 | N 3.86 | I 1.84 | G 3.4 | A 2.82
N13: W 2.87 | H 3.3 | T 3.76 | E 3.83 | P 3.71 | K 3.88

Variants of: B2
Experiment: as above
Conditions: c terminus: a fixed tail appended

Protein stability index of substitutions, site by site:
L15: Q 2.96 | D 2.83 | I 2.25 | N 2.74 | R 2.43 | P 2.43 | H 2.38 | Y 1.98 | C 2.87 | V 2.14 | E 2.92 | T 2.32 | G 2.35 | S 3.6 | F 2.23 | M 2.19 | W 1.93 | K 3.64
D13: M 2.12 | V 1.73 | L 1.81 | Q 1.91 | T 1.91 | F 1.87 | I 2.42 | S 2.04 | H 1.75 | A 1.34 | K 1.68 | P 2.2 | R 2.66 | C 2.17 | N 2.46 | G 3.29
Y22: P 2.73 | I 2.22 | H 2.18 | G 3.2 | R 3.05 | W 1.67 | F 1.92 | V 2.27 | K 3.07 | E 3.04 | L 1.61 | D 2.03 | Q 2.17 | T 2.72 | S 3.66 | M 1.93 | N 3.3
A12: T 2.97 | Y 1.77 | W 1.32 | N 2.88 | R 1.56 | Q 2.07 | P 2.54 | S 2.2
D20: P 1.41 | H 2.14 | E 1.61 | I 1.71 | C 1.99 | N 1.3 | M 2.22 | S 1.48 | R 2.57 | Q 1.53 | L 1.84 | F 1.39 | V 3.92 | T 2.34 | K 1.4 | G 2.29
K21: L 2.02 | S 1.92 | Y 1.13 | Q 3.78 | W 2.02 | H 1.89 | M 1.65 | C 1.88 | E 3.6 | P 2.48 | N 2.11 | A 2.04 | V 2.53 | G 1.81 | I 1.42 | D 2.36
A17: E 2.98 | G 2.79 | P 1.95 | F 2.04 | R 2.05 | D 2.7 | Q 2.33 | I 1.58 | Y 1.62 | N 2.44 | H 2.08 | M 1.4 | V 2 | K 2.28 | C 2.28 | S 2.27 | T 2.55 | L 2.34
N14: A 1.69 | M 2.37 | D 2.25 | S 2.38 | I 1.85 | K 1.73 | Q 2.01 | G 2.05 | R 2.39 | H 1.94 | E 2.16 | W 1.45 | Y 1.86 | T 1.45 | F 1.84 | P 2.2 | V 2.43
A19: Q 2.77 | N 2.49 | F 1.5 | H 2.24 | Y 2.11 | R 2.25 | S 1.65 | M 2.22 | W 1.37 | G 2.23 | I 2.76 | K 1.64 | T 1.99 | P 2.7 | D 2.76 | E 2.33
L16: R 2.65 | E 3.22 | K 3.18 | N 2.22 | D 3.83 | Q 2.73 | T 3.25 | S 1.84 | I 2.33 | Y 2.06 | C 1.59 | V 2.2 | P 2.32 | A 2.24 | G 2.94 | M 2.37 | H 2.97 | F 1.22
L24: D 3.62 | S 2.73 | W 1.86 | C 2.37 | R 2.24 | H 2.49 | V 2 | T 2.42 | Q 2.16 | G 2.78 | F 2.01 | E 3.11 | I 2.02 | A 2.02 | M 2.33 | N 2.66 | K 2.55 | P 2.17 | Y 1.89
A23: E 2.77 | W 1.22 | R 1.91 | H 1.78 | F 1.81 | P 2.24 | D 2.45 | M 2.18 | Y 2.02 | N 2.3 | C 2.57 | L 1.67 | Q 2.4 | I 1.65 | G 1.83 | K 2.37 | T 2.71 | S 1.97 | V 1.54
A18: M 1.9 | R 1.56 | H 1.96 | Y 2.25 | T 1.99 | L 2.7 | W 2.62 | E 2.42 | P 2.18 | I 1.42 | Q 3.07 | S 2.18 | V 2.31 | K 1.77 | F 1.77 | D 2.62 | C 1.51 | N 2.01 | G 2.61
